Data published in US20220031840A1, “Method of Treatment” (HaemaLogix Pty Ltd, priority 2018, published 2022).

Key:
[1] = tested on: HGF; test: Biomarker analysis: serum HGF; assay type: in vivo, human; settings: adjusted for cytokine baseline differences
Protocol: (§1) Patient serum samples for biomarker analysis were collected approximately 30 minutes before infusion of kappamab and then at 6, 48, 192, and 1,080 hours after infusion for all patients. Samples were analysed in triplicate and serum levels of 48 human cytokines, chemokines, and growth factors were measured using the Bio-Plex Pro™ Human Cytokine 27-plex and 21-plex assays according to the manufacturer's recommendations (Bio-Rad, Carlsbad, Calif., USA; Cat No M10-0KCAF0Y, mg0-005KMII). Results were verified by repeating the 21-plex assay in triplicate and the samples were randomized across the assay plate. Pre-infusion samples were used as the baseline (t=0) for the analysis.
(§2) Multivariate analysis of the biomarker data was performed using R version 3.1.0 (2014-04-10) software (http://www.R-project.org/). Linear mixed effects modelling was completed using 1me4 (Bates et al. 2015). […]
(§3) To find significance between kappamab dose, time, and cytokine expression levels, we fitted a linear mixed-effects model that modelled cytokine fluorescence expression levels with fixed-effects terms for baseline cytokine fluorescence expression, kappamab dose (with 4 levels: 0.3, 1.0, 3.0, and 10 mg/kg), time (treated as factor with 5 levels), and cytokine with 48 levels, plus their interactions, with a random effect associated with patient (12 levels) and plex (2 levels). […]

[2] = tested on: multiple myeloma; test: Myeloma response, 18FDG-PET scan; assay type: in vivo, human
Protocol: FIG. 5. ^[…]-positron emission tomography (^18FDG-PET) scans for Patient 8 (who was receiving lenalidomide) prior to kappamab treatment (Panel A) and 30 days after intravenous infusion with 3.0 mg/kg kappamab (Panel B). ^18FDG-PET scanning was performed encompassing the skull vertex down to the knees on the combined PET/Computed Tomography (CT) scanner and a contemporaneous low-dose, non-contrast CT scan was performed for the purposes of attenuation correction and to provide anatomical correlation. […] In the spine, disease is most prominent within the sacrum. In the appendicular skeleton, disease is most pronounced within the proximal femur, where a prosthetic rod is in situ. No metabolically active disease is present outside the bones. In Panel B, ^18FDG-PET scanning was performed as before to assess the response 30 days after kappamab treatment. […] Low-grade uptake on the right lower lateral chest wall was […] and may reflect physiological muscular activity.
As patients only received a single infusion of kappamab it was not anticipated that any conventional responses would be observed.

[3] = tested on: CCL27; test: Biomarker analysis: serum CCL27; assay type: in vivo, human; settings: adjusted for cytokine baseline differences
Protocol: as §1, §2, §3

[4] = tested on: G-CSF; test: Biomarker analysis: serum G-CSF; assay type: in vivo, human; settings: adjusted for cytokine baseline differences
Protocol: as §1, §2, §3

[5] = tested on: CXCL9; test: Biomarker analysis: serum CXCL9; assay type: in vivo, human; settings: adjusted for cytokine baseline differences
Protocol: as §1, §2, §3

[6] = Pharmacokinetics: serum kappamab by ELISA; assay type: in vivo, human
Text: The PK analysis was based on measurement of serum kappamab using an ELISA that was validated according to recommended guidelines. Briefly, immobilized human kappa Bence Jones protein (Bethyl, Sigma, USA) was used to capture kappamab. The captured kappamab was then detected using an AP-conjugated anti-human IgG (gamma chain specific; Sigma, Cat. No. H4522) followed by colour development with the AP substrate.

[7] = tested on: CXCL10; test: Biomarker analysis: serum CXCL10; assay type: in vivo, human; settings: adjusted for cytokine baseline differences
Protocol: as §1, §2, §3

[8] = tested on: human anti-chimeric antibody (HACA) against kappamab; test: Human anti-chimeric antibody (HACA) sandwich ELISA; assay type: in vivo; settings: Day 45 post infusion, any patient
Protocol: Blood samples were taken at pre-infusion and at completion of the treatment phase (Day 45 post infusion) for measurement of HACA responses. The presence of HACA was measured using a validated sandwich ELISA. Briefly, kappamab was immobilized on ELISA plates and the captured antibodies were detected using biotinylated kappamab and ExtrAvidie-alkaline phosphatase (Sigma, USA) followed by the alkaline phosphatase (AP) substrate. Goat anti-human IgG was used as the positive control for the assay.

Substance: kappamab: humanized form of K121 anti-KMA antibody; VH SEQ ID NO: 1, VL SEQ ID NO: 2
- Change in serum concentration [1]: dose-related decreases
- 18FDG-PET metabolic response ([2]; Patient 8 (receiving lenalidomide), 3 mg/kg, 30 days after infusion versus baseline scan, 3 mg/kg): favourable and almost complete metabolic response
- Symptomatic improvement ([2]; Patient 8, 3 mg/kg): diminished bone pain and normalization of kidney function
- Change in serum concentration [3]: dose-related decreases
- Change in serum concentration [4]: dose-related decreases
- Change in serum concentration [5]: dose-related decreases
- Cmax ([6]; 1.0 mg/kg single IV dose, N = 3, geometric mean): 20600 ng/mL
- Manner of decline of serum kappamab after Cmax ([6]; human, in vivo): biphasic manner
- Serum concentration at Day 30 relative to Cmax ([6]; human, in vivo): 0.3-10 % of Cmax
- Volume of distribution (Vz), description ([6]; human, in vivo): low and similar across ascending doses
- AUC0-tz ([6]; human, in vivo, iv, 0.3 mg/kg): 803 µg·h/mL
- AUC0-tz normalized for dose (mg/kg) ([6]; human, in vivo, iv, 0.3 mg/kg): 2678 µg·h/mL
- AUC0-∞ ([6]; human, in vivo, iv, 0.3 mg/kg): 901 µg·h/mL
- AUC0-∞ normalized for dose (mg/kg) ([6]; human, in vivo, iv, 0.3 mg/kg): 3003 µg·h/mL
- CL (apparent total body clearance) ([6]; human, in vivo, iv, 0.3 mg/kg): 7.99 mL/day/kg
- Cmax ([6]; human, in vivo, iv, 0.3 mg/kg): 5440 ng/mL
- Vz (apparent volume of distribution during terminal phase) ([6]; human, in vivo, iv, 0.3 mg/kg): 0.114 L/kg
- t1/2 (apparent elimination half-life) ([6]; human, in vivo, iv, 0.3 mg/kg): 237 h
- tmax ([6]; human, in vivo, iv, 0.3 mg/kg): 3.00 h
- AUC0-tz ([6]; human, in vivo, iv, 1 mg/kg): 3006 µg·h/mL
- AUC0-tz normalized for dose (mg/kg) ([6]; human, in vivo, iv, 1 mg/kg): 3006 µg·h/mL
- AUC0-∞ normalized for dose (mg/kg) ([6]; human, in vivo, iv, 1 mg/kg): 3079 µg·h/mL
- CL (apparent total body clearance) ([6]; human, in vivo, iv, 1 mg/kg): 7.79 mL/day/kg
- Vz (apparent volume of distribution during terminal phase) ([6]; human, in vivo, iv, 1 mg/kg): 0.0946 L/kg
- t1/2 (apparent elimination half-life) ([6]; human, in vivo, iv, 1 mg/kg): 202 h
- tmax ([6]; human, in vivo, iv, 1 mg/kg): 4.00 h
- AUC0-tz ([6]; human, in vivo, iv, 3 mg/kg): 6864 µg·h/mL
- AUC0-tz normalized for dose (mg/kg) ([6]; human, in vivo, iv, 3 mg/kg): 2288 µg·h/mL
- AUC0-∞ ([6]; human, in vivo, iv, 3 mg/kg): 6927 µg·h/mL
- AUC0-∞ normalized for dose (mg/kg) ([6]; human, in vivo, iv, 3 mg/kg): 2309 µg·h/mL
- CL (apparent total body clearance) ([6]; human, in vivo, iv, 3 mg/kg): 10.4 mL/day/kg
- Cmax ([6]; human, in vivo, iv, 3 mg/kg): 69900 ng/mL
- Vz (apparent volume of distribution during terminal phase) ([6]; human, in vivo, iv, 3 mg/kg): 0.120 L/kg
- t1/2 (apparent elimination half-life) ([6]; human, in vivo, iv, 3 mg/kg): 191 h
- tmax ([6]; human, in vivo, iv, 3 mg/kg): 2.00 h
- AUC0-tz ([6]; human, in vivo, iv, 10 mg/kg): 22994 µg·h/mL
- AUC0-tz normalized for dose (mg/kg) ([6]; human, in vivo, iv, 10 mg/kg): 2299 µg·h/mL
- AUC0-∞ ([6]; human, in vivo, iv, 10 mg/kg): 23227 µg·h/mL
- AUC0-∞ normalized for dose (mg/kg) ([6]; human, in vivo, iv, 10 mg/kg): 2323 µg·h/mL
- CL (apparent total body clearance) ([6]; human, in vivo, iv, 10 mg/kg): 10.3 mL/day/kg
- Cmax ([6]; human, in vivo, iv, 10 mg/kg): 219000 ng/mL
- Vz (apparent volume of distribution during terminal phase) ([6]; human, in vivo, iv, 10 mg/kg): 0.0770 L/kg
- t1/2 (apparent elimination half-life) ([6]; human, in vivo, iv, 10 mg/kg): 124 h
- tmax ([6]; human, in vivo, iv, 10 mg/kg): 4.00 h
- Detectability of kappamab in serum ([6]; in vivo): could be detected at all dose levels (up to Day 30)
- Start of the apparent terminal elimination phase ([6]; in vivo, iv): ~7 days
- Time at which maximum serum concentrations were achieved ([6]; in vivo, iv): 2 to 4 h
- Change in serum concentration [7]: dose-related decreases
- HACA response to kappamab [8]: no antibody responses to kappamab were detected
